B1: Storkhead-box protein 2, residues 64 to 141; numbered along this chain, Q9P2F5 (parent)
chain: SPISQSQFIPLGEILCLAISAMNSARKPVTQEALMEHLTTCFPGVPTPSQEILRHTLNTLVRERKIYPTPDGYFIVTP

Variants of: B1
Experiment: abundance fitness (aPCA) (normalised: wild type 0, dead -1); higher = more abundant; growth selection in yeast, the domain comes from the species named
Conditions: Homo sapiens

Abundance fitness: each site, then its substitutions
Q31: Y -0.051
E32: A -0.008, C -0.174, D -0.088, F -0.159, G -0.046, H 0.056, I -0.072, K -0.057, L -0.117, M -0.094, N -0.126, P -0.042, Q 0.041, R -0.077, S -0.03, T 0.008, V -0.071, W -0.139, Y -0.104
A33: C -0.188, D -0.154, E -0.067, G -0.038, H 0.019, I -0.274, K -0.028, L -0.061, N 0.1, P -0.339, Q 0.009, R -0.045, S -0.001, T -0.118, V -0.127, W -0.279, Y -0.167
L34: A -0.45, C -0.048, E -1.08, F -0.576, G -1.09, H -0.87, I -0.012, K -1, M -0.208, P -1.09, Q -0.774, R -0.83, S -0.869, T -0.576, V -0.045, W -0.994
M35: A 0.02, C -0.038, D -0.191, E -0.113, F 0.04, G -0.049, H 0.018, I 0.044, K -0.299, L -0.058, N -0.249, P -0.361, Q -0.063, R -0.103, S 0.005, T -0.024, V -0.092, W -0.124, Y -0.164
E36: A -0.063, C -0.064, D -0.012, F -0.158, G -0.028, H -0.082, K -0.008, L -0.058, M -0.059, N 0.054, P -0.424, Q 0.029, R 0.003, S -0.001, T -0.006, V -0.102, W -0.187, Y -0.144
H37: A -0.285, C -0.222, D -0.259, E -0.104, F -0.285, G -0.236, K -0.164, L -0.548, M -0.357, N -0.092, P -0.802, R -0.144, S -0.23, T -0.322, V -0.48, W -0.27, Y -0.159
L38: A -0.386, C -0.316, D -0.915, F 0.014, G -0.787, H -0.388, I -0.091, K -0.608, P -0.998, Q -0.865, R -0.894, S -0.613, T -0.258, V -0.075, W -0.048, Y -0.391
T39: A -0.025, C -0.038, D 0.09, E -0.137, F -0.099, G 0.019, H -0.044, I 0.04, K -0.15, L -0.095, M -0.117, P -0.076, R 0.016, S -0.043, V 0.098, W -0.003, Y 0.024
T40: A -0.158, C 0.002, D -0.069, E -0.048, F -0.105, G -0.045, I -0.066, K -0.042, L -0.077, M -0.104, N -0.133, P -0.551, Q 0.021, R 0.016, S -0.005, V -0.013, Y -0.069
C41: A 0.019, D -0.055, E 0.004, F 0.01, G 0.019, H -0.096, I -0.129, K -0.11, M 0.032, N -0.024

— the Human Domainome abundance scans (Beltran et al. 2025)
